This test has as its system HPV+ SCC152 target cells. The test can be described thus: Mass cytometry (CyTOF) viSNE marker analysis of CER-transduced CD4+ T cells after antigen encounter. The test is classed as cell-based. Particulars: for memory formation after antigen encounter: CER-transduced CD4+ T cells; for viSNE islands expressing T cell activation marker CD69 / viSNE islands expressing intracellular marker IFNγ: CER-transduced CD4+ T cells co-cultured with E7 TCR CD8+ T cells and SCC152; for viSNE islands expressing naïve T cell marker CD45RA within the CCR7+ population: compared to controls.
Text: FIG. 64A-64B show viSNE maps of mass cytometry data of CER-transduced CD4+ T cells upon antigen encounter. CER-transduced CD4+ T cells were co-cultured with E7-specific TCR-transduced CD8+ T cells and HPV+ SCC152 target cells and then interrogated by mass cytometry (CyTof). Intact CER-CD4+ T cells are shown in plots displaying tSNE1 and tSNE2 axes. Nine intracellular markers were used for the viSNE analysis. Each dot represents a single cell. […] FIG. 64B: Populations of CD4^+ T cells were generated using a clustering algorithm from all 32 markers and overlaid onto the viSNE map.
(§1) FIGS. 65A-65B show viSNE maps of mass cytometry data of CER-expressing CD4+ T cells upon antigen encounter. CER-transduced CD4+ T cells were co-cultured with E7-specific TCR-transduced CD8+ T cells and HPV+ SCC152 target cells and then interrogated by mass cytometry (CyTof). Intact CER-CD4+ T cells are shown in plots displaying tSNE1 and tSNE2 axes. Eighteen cell surface markers were used for the viSNE analysis. Each dot represents a single cell. FIG. 65A: Populations of CD4^+ T cells were generated using a clustering algorithm from all 18 markers and overlaid onto the viSNE map. […] FIG. 65B: Color plots show the phenotype across viSNE ‘islands.’ Red represents high expression and blue represents low expression for each marker. Highlighted region indicates cells expressing T cell activation marker CD69.
as §1, with “FIGS. 66A-66B” for “FIGS. 65A-65B”, “FIG. 66A:” for “FIG. 65A:”, “FIG. 66B:” for “FIG. 65B:”, “cells the naïve” for “cells expressing”, “cell” for “cell activation”, “marker CD45RA.” for “marker CD69.”
CD4+ T cells were transduced with lentiviral vector comprising CER104, CER116, or CER117 nucleic acid. CER104 (SEQ ID NO:139) comprises a Tim4 binding domain, Tim4 transmembrane domain, and an engulfment signaling domain comprising a primary engulfment signaling domain comprising a TLR8 signaling domain and a secondary engulfment signaling domain comprising a DAP12 signaling domain. CER116 (SEQ ID NO:152) comprises a Tim4 binding domain, Tim4 transmembrane domain, and an engulfment signaling domain comprising a primary engulfment signaling domain comprising a TRAF6 signaling domain and a secondary engulfment signaling domain comprising a TLR8 signaling domain. CER117 (SEQ ID NO:153) comprises a Tim4 binding domain, Tim4 transmembrane domain, and an engulfment signaling domain comprising a primary engulfment signaling domain comprising a TLR8 signaling domain and a secondary engulfment signaling domain comprising a TRAF6 signaling domain. CER-transduced CD4+ T cells were co-cultured with E7 TCR-transduced CD8+ T cells and HPV+ SCC152 target cells and interrogated by mass cytometry (CyTOF) with viSNE for visualization of high dimensional single cell data (FIGS. 64-66). Intact CER-transduced CD4+ T cells are shown in plots displaying tSNE1 (horizontal) and tSNE2 (vertical) axes. 27 intracellular markers were used for the viSNE analysis. Each dot represents a single cell. […] Red represents high expression and blue represents low expression for each marker. Populations of CD4^+ T cells were generated using a clustering algorithm from all 27 markers and overlaid onto the viSNE map. […] Populations of CD4^+ T cells were generated using a clustering algorithm from all 18 markers and overlaid onto the viSNE map (FIG. 65A). […]

B1: CER104: Chimeric engulfment receptor: Tim4 binding, Tim4 transmembrane, TLR8 and DAP12 signaling; SEQ ID NO: 139 (protein)
chain: MSKGLLLLWLVTELWWLYLTPAASEDTIIGFLGQPVTLPCHYLSWSQSRNSMCWGKGSCPNSKCNAELLRTDGTRIISRKSTKYTLLGKVQFGEVSLTISNTNRGDSGVYCCRIEVPGWFNDVKKNVRLELRRATTTKKPTTTTRPTTTPYVTTTTPELLPTTVMTTSVLPTTTPPQTLATTAFSTAVTTCPSTTPGSFSQETTKGSAFTTESETLPASNHSQRSMMTISTDIAVLRPTGSNPGILPSTSQLTTQKTTLTTSESLQKTTKSHQINSRQTILIIACCVGFVLMVLLFLAFLHHLFYWDVWFIYNVCLAKVKGYRSLSTSQTFYDAYISYDTKDASVTDWVINELRYHLEESRDKNVLLCLEERDWDPGLAIIDNLMQSINQSKKTVFVLTKKYAKSWNFKTAFYLALQRLMDENMDVIIFILLEPVLQHSQYLRLRQRICKSSILQWPDNPKAEGLFWQTLRNVVLTENDSRYNNMYVDSIKQYYFLGRLVPRGRGAAEAATRKQRITETESPYQELQGQRSDVYSDLNTQRPYYK
modifications: CER104, amino acids 1-22 are signal peptide
Take B1: the “memory formation after antigen encounter” value is given as “associated with memory formation after antigen encounter”, the “viSNE islands expressing T cell activation marker CD69” value is “enrichment of islands expressing the T cell activation marker CD69”, the “viSNE islands expressing intracellular marker IFNγ” value is listed as “enrichment of islands expressing the intracellular marker IFNγ” and the “viSNE islands expressing naïve T cell marker CD45RA within the CCR7+ population” value is “loss of islands expressing the naïve T cell marker CD45RA”.

B2: CER116: Chimeric engulfment receptor: Tim4 binding, Tim4 transmembrane, TRAF6 and TLR8 signaling; SEQ ID NO: 152 (protein)
chain: MSKGLLLLWLVTELWWLYLTPAASEDTIIGFLGQPVTLPCHYLSWSQSRNSMCWGKGSCPNSKCNAELLRTDGTRIISRKSTKYTLLGKVQFGEVSLTISNTNRGDSGVYCCRIEVPGWFNDVKKNVRLELRRATTTKKPTTTTRPTTTPYVTTTTPELLPTTVMTTSVLPTTTPPQTLATTAFSTAVTTCPSTTPGSFSQETTKGSAFTTESETLPASNHSQRSMMTISTDIAVLRPTGSNPGILPSTSQLTTQKTTLTTSESLQKTTKSHQINSRQTILIIACCVGFVLMVLLFLAFLMSLLNCENSCGSSQSESDCCVAMASSCSAVTKDDSVGGTASTGNLSSSFMEEIQGYDVEFDPPLESKYECPICLMALREAVQTPCGHRFCKACIIKSIRDAGHKCPVDNEILLENQLFPDNFAKREILSLMVKCPNEGCLHKMELRHLEDHQAHCEFALMDCPQCQRPFQKFHINIHILKDCPRRQVSCDNCAASMAFEDKEIHDQNCPLANVICEYCNTILIREQMPNHYDLDCPTAPIPCTFSTFGCHEKMQRNHLARHLQENTQSHMRMLAHHLFYWDVWFIYNVCLAKVKGYRSLSTSQTFYDAYISYDTKDASVTDWVINELRYHLEESRDKNVLLCLEERDWDPGLAIIDNLMQSINQSKKTVFVLTKKYAKSWNFKTAFYLALQRLMDENMDVIIFILLEPVLQHSQYLRLRQRICKSSILQWPDNPKAEGLFWQTLRNVVLTENDSRYNNMYVDSIKQY
modifications: CER116, amino acids 1-22 are signal peptide
Take B2: the “memory formation after antigen encounter” value was “associated with memory formation after antigen encounter”, the “viSNE islands expressing T cell activation marker CD69” value was “enrichment of islands expressing the T cell activation marker CD69”, the “viSNE islands expressing intracellular marker IFNγ” value is listed as “enrichment of islands expressing the intracellular marker IFNγ” and the “viSNE islands expressing naïve T cell marker CD45RA within the CCR7+ population” value is listed as “loss of islands expressing the naïve T cell marker CD45RA”.

B3: CER117: Chimeric engulfment receptor: Tim4 binding, Tim4 transmembrane, TLR8 and TRAF6 signaling; SEQ ID NO: 153 (protein)
chain: MSKGLLLLWLVTELWWLYLTPAASEDTIIGFLGQPVTLPCHYLSWSQSRNSMCWGKGSCPNSKCNAELLRTDGTRIISRKSTKYTLLGKVQFGEVSLTISNTNRGDSGVYCCRIEVPGWFNDVKKNVRLELRRATTTKKPTTTTRPTTTPYVTTTTPELLPTTVMTTSVLPTTTPPQTLATTAFSTAVTTCPSTTPGSFSQETTKGSAFTTESETLPASNHSQRSMMTISTDIAVLRPTGSNPGILPSTSQLTTQKTTLTTSESLQKTTKSHQINSRQTILIIACCVGFVLMVLLFLAFLHHLFYWDVWFIYNVCLAKVKGYRSLSTSQTFYDAYISYDTKDASVTDWVINELRYHLEESRDKNVLLCLEERDWDPGLAIIDNLMQSINQSKKTVFVLTKKYAKSWNFKTAFYLALQRLMDENMDVIIFILLEPVLQHSQYLRLRQRICKSSILQWPDNPKAEGLFWQTLRNVVLTENDSRYNNMYVDSIKQYMSLLNCENSCGSSQSESDCCVAMASSCSAVTKDDSVGGTASTGNLSSSFMEEIQGYDVEFDPPLESKYECPICLMALREAVQTPCGHRFCKACIIKSIRDAGHKCPVDNEILLENQLFPDNFAKREILSLMVKCPNEGCLHKMELRHLEDHQAHCEFALMDCPQCQRPFQKFHINIHILKDCPRRQVSCDNCAASMAFEDKEIHDQNCPLANVICEYCNTILIREQMPNHYDLDCPTAPIPCTFSTFGCHEKMQRNHLARHLQENTQSHMRMLA
modifications: CER117, amino acids 1-22 are signal peptide
For B3, the “viSNE islands expressing intracellular marker IFNγ” value was “enrichment of islands expressing the intracellular marker IFNγ”.
